The values below come from paper PMC12005729.

What all share (assay): native gel or EMSA + other: dynamic light scattering; self-assembly into the 24-mer cage; DLS at 25 °C, 1 µM protein in 50 mM Tris-HCl, pH 8, 150 mM NaCl
In general terms: A gel shift assay detects complexes by their altered migration in electrophoresis.

The target of assay [1] is Fr‐F5/59A (Fr‐E53F/E56F/E57F/R59A/E60F/E63F), mutant of recombinant horse spleen apo‐L ferritin (horse).
Assay [2] addresses Fr‐F6 (Fr‐E53F/E56F/E57F/R59F/E60F/E63F), mutant of recombinant horse spleen apo‐L ferritin (horse).
In assay [3] the target is Fr‐F2 (Fr‐E56F/R59F), mutant of recombinant horse spleen apo‐L ferritin (horse).
Assay [4] concerns the target Fr‐F5/59L (Fr‐E53F/E56F/E57F/R59L/E60F/E63F), mutant of recombinant horse spleen apo‐L ferritin (horse).
For assay [5], the target named is Fr‐F1 (Fr‐R59F), mutant of recombinant horse spleen apo‐L ferritin (horse).
Assay [6] deals with Fr‐F4 (Fr‐R52F/E56F/R59F/E63F), mutant of recombinant horse spleen apo‐L ferritin (horse).

In the case of “Fr‐F5/59A (Fr‐E53F/E56F/E57F/R59A/E60F/E63F), mutant of recombinant horse spleen apo‐L ferritin (natural protein)”, the stoichiometry N in assay [1] was found to be 24.

On to “Fr‐F6 (Fr‐E53F/E56F/E57F/R59F/E60F/E63F), mutant of recombinant horse spleen apo‐L ferritin (natural protein)”, for which, in assay [2], the stoichiometry N was determined as 24.

Consider “Fr‐F2 (Fr‐E56F/R59F), mutant of recombinant horse spleen apo‐L ferritin (natural protein)”, for which the stoichiometry N in assay [3] came out at 24.

For “Fr‐F5/59L (Fr‐E53F/E56F/E57F/R59L/E60F/E63F), mutant of recombinant horse spleen apo‐L ferritin (natural protein)”, the stoichiometry N in assay [4] was found to be 24.

With “Fr‐F1 (Fr‐R59F), mutant of recombinant horse spleen apo‐L ferritin (natural protein)”, the stoichiometry N in assay [5] turned out to be 24.

For “Fr‐F4 (Fr‐R52F/E56F/R59F/E63F), mutant of recombinant horse spleen apo‐L ferritin (natural protein)”, the stoichiometry N in assay [6] was 24.

Usually stoichiometry N stands for a count of units in the complex or per binding partner.
